Measurements as given in patent WO2008021263A2.

Assays:
[1] = target: SDF-1α (stromal cell-derived factor-1 alpha) (Felis catus (Cat) (Felis silvestris catus)) (UniProt O62657); test: SPR, Fab (about 1250 RU) on anti-CH1 chip, saturating SDF-1α (Figure 5: 1D3)
[2] = target: SDF-1α (stromal cell-derived factor-1 alpha) (Felis catus (Cat) (Felis silvestris catus)) (UniProt O62657); test: SPR, calculated as (RU SDF-1α/RU Fab)*(M.Wt Fab/M.Wt SDF-1α), Fab on anti-CH1 chip (Figure 5: 1D3)

Sequence of SDF-1α (stromal cell-derived factor-1 alpha) (Felis catus (Cat) (Felis silvestris catus)) (O62657 22-89 limits assumed): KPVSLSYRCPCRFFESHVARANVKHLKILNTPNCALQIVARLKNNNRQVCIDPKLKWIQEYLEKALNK

RUSDF-1α (response units of SDF-1α bound) [1]: 350 RU
stoichiometry (molecules of SDF-1α bound per Fab molecule) (molecules of SDF-1α per Fab molecule) [2]: 1.75
B1: 1D3 Fab (Fab, V domains shown)
VH: EVQLVQSGAEVKKPGASVKVSCKVSGYTLTKLSVHWVRQAPGKGLEWMGSFDPEDGETIYSQRFQGRVTMTEDTSTDTAYMELTSLRSEDTAVYYCATEGQWLVAYYGMDVWGQGTTVTVSS
VL: EIVLTQSPSSLSASVGDRVTITCRASQGISSALAWYQQKPGKAPKLLIYDASSLESGVPSRFSGSGSGTDFTLTISSLQPEDFATYYCQQFNSYPLTFGGGTKVEIK
